Biological target: M2e4x-PR8HA fusion protein (four tandem repeats of M2e fused to A/PR8 HA) on recombinant M2e4x-PR8HA influenza virus (influenza A/PR/8/34 (H1N1)) (UniProt P03452)
Experiment: ELISA on serially coated inactivated virus

“Influenza A virus M2 monoclonal antibody 14C2 (Abcam Inc., Cambridge, Mass.)” was tested, and the coating concentration at which reactivity was detected (ng/100 µl/well) was 20 and the fold M2e reactivity relative to parental wild type A/PR8 virus was 250 fold.
